Assay results as given in article doi:10.1101/2025.10.28.685041.

Molecular target: Rhs2 C-terminal toxin domain (Rhs2CT), His6 tag removed, as in the Rhs2CT-RhsI2-EF-Tu complex (Serratia marcescens Db10)
Test: SEC

| Substance | stoichiometry N |
| --- | --- |
| RhsI2 immunity protein, untagged (natural protein) | 1 |
| E. coli elongation factor thermo-unstable (EF-Tu) (from UniProt P0CE47 1-394) (natural protein) | 1 |
